The source of these data is article PMC2566891 (Nucleic Acids Research, 2008).

The experiment concerns p53/DNA complex (p21 dsDNA). The experiment in a line: Electrophoretic mobility shift assay. The following applies: phosphorylated p53 8 µM, p21 DNA 4 µM, 14-3-3γ 0–20 µM; 0.8% agarose gel. The format is binding.

B1: 14-3-3: recombinant 14-3-3 protein (γ isoform in EMSA, Figure 5A) (protein)
chain: MDDREDLVYQAKLAEQAERYDEMVESMKKVAGMDVELTVEERNLLSVAYKNVIGARRASWRIISSIEQKEENKGGEDKLKMIREYRQMVETELKLICCDILDVLDKHLIPAANTGESKVFYYKMKGDYHRYLAEFATGNDRKEAAENSLVAYKAASDIAMTELPPTHPIRLGLALNFSVFYYEILNSPDRACRLAKAAFDDAIAELDTLSEESYKDSTLIMQLLRDNLTLWTSDMQGDGEEQNKEALQDVEDENQ
As for B1, the p53/DNA complex formation entry was “enhanced the p53/DNA complex formation”.
